Laboratory results as given in US20230416394A1 (ELPISCIENCE SUZHOU BIOPHARMA, published 2023).
Positions count from the first letter of the chain named. Values joined by “and” are separate entries in the source; they are usually repeats but may differ in a detail not shown here. Identical values can stand only once.

T1: mouse CD39 (mouse, UniProt P55772 1-510)
T1 construct: whole, on cells; also called mCD39; CHOK1-mCD39
T1 sequence (looked up): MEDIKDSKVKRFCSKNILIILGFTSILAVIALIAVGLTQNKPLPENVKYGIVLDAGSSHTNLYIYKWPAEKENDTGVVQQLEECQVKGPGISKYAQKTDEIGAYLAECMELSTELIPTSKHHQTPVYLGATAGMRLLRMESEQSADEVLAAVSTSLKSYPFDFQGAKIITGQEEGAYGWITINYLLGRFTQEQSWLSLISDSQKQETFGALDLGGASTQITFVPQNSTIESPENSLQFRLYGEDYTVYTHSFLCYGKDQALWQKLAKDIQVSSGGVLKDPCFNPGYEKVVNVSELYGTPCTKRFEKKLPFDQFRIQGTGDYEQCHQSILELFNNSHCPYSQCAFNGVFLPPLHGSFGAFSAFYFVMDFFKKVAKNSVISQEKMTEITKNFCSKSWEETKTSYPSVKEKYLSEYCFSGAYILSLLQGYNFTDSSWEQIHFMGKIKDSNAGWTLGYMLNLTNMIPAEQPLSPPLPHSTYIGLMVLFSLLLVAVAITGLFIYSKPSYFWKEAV

T2: human CD39 (human, UniProt P49961 1-510)
T2 sequence: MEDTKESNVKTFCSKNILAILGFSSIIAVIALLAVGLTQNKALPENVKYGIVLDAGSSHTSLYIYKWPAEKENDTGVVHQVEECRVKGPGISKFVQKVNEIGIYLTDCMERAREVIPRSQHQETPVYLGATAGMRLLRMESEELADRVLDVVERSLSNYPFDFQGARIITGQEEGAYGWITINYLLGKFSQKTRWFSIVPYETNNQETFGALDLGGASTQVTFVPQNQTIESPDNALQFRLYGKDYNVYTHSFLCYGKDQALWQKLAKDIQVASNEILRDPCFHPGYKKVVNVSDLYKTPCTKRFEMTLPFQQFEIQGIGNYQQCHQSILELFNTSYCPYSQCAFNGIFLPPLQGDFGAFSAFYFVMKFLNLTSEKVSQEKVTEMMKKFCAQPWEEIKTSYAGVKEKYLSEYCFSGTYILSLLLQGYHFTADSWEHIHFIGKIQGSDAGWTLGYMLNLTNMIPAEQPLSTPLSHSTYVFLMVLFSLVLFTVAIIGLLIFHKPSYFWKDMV

B1: mAb14 (antibody, V domains shown)
VH: EVKLEESGGGLVQPGGSMKLSCVASGFTFSKYWMNWVRQSPEKGLEWVAEIRLKSNKYGTHYAESVKGRFTISRDDSKNNVYLQMNNLRPEDTGIYYCTTQLDLYWFFDVWGAGTTVTVSS
VL: DIVMTQSPAILSVTPGDRVSLSCRASQSISDYLHWYQQKSHESPRLLIKYASQSISGIPSRFSGSGSGSNFTLSINSVEPEDVGVYFCQNGHSLPLTFGAGTKLELR
notes: mouse hybridoma antibody
B2: mAb35 (antibody, V domains shown)
VH: EVRLQQSGAELVKPGASVKLSCTASGFNIEDTYVHWMKQRPEQGLEWIGRIDPAIDNSKYDPKFQGKATITAVSSSNTAYLQLSSLTSEDTAVYYCALYDGYNVYAMDYWGQGTSVTVSS
VL: DIVMTQAAFSNPVTLGTSASISCRSSKNLLHSNGITYLYWYLQRPGQSPQLLIYRASTLASGVPNRFSGSESGTDFTLRISRVEAEDVGVYYCAQLLELPHTFGGGTKLEIK
notes: mouse hybridoma antibody
B3: mAb19 (antibody, V domains shown)
VH: EVKLEKSGGGLVQPGGSMKLSCVASGFTFSNYWMNWVRQSPEKGLEWVAQIRLNPDNYATHYAESVKGRFTISRDDYKNSVYLQMSSLRAEDSGIYYCTQHGSRGFAYWGQGTLVTVS
VL: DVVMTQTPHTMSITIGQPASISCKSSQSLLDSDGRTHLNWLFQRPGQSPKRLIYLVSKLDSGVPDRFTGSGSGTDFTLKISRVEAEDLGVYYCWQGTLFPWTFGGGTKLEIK
notes: mouse hybridoma antibody
B4: mAb13 (antibody, V domains shown)
VH: QIQLVQSGPELKKPGETVKISCKASGYTFTNYGMNWVKQAPGKGLRWMGLINTYTGEPTYADDFKDRFAFSLETSASTAFLQINNLKDEDMATYFCARKGIYYDYVWFFDVWGAGTTVTVSS
VL: DIQMTQSPSSLSTSLGGKVSITCKASQDINRYIAWYQHKPGKGPRLLIHYTSTLLPGIPSRFSGSGSGRDYSFSISNLEPEDIATYFCLQYSNLLTFGGGTKLEIK
notes: mouse hybridoma antibody
B5: mAb23 (antibody, V domains shown)
VH: EVQLQQSGAELLRPGASVKLSCTASGYNLKDTFLHWVKQRPEQGLEWIGRIDPANGNIKYDPKFQGKATLTADTSSNTAYLQLISLTSEDTAVYYCANSPYYYGSGYRIFDVWGAGTTVTVSS
VL: QIVLTQSPAIMSASPGEKVTITCSAFSSVNYMHWYQQKPGTSPKLLIYTTSNLASGVPTRFSGSGSGTSYSLTISRMEAEDAATYYCQQRSTYPFTFGSGTKLEIQ
notes: mouse hybridoma antibody
B6: mAb34 (antibody, V domains shown)
VH: EIQVQQSGPELVKPGASVKVSCKASGYSFTDYNMYWVKQSHGKSLEWIGFIDPYNGYTSYNQKFKGKATLTIDKSSSTAFMHLNSLTSEDSAVYYCAIYGYDDAYYFDYWGQGTTLTVSS
VL: B5 VL with F26T, N30S, Y35F, Q36R, L46W, T49S, T59A, E78A, S91I, Q106T
notes: mouse hybridoma antibody
B7: mAb21 (antibody, V domains shown)
VH: EVKLEKSGGGLVQPGGSMKLSCVASGFTFSNYWMNWVRQSPEKGLEWVAQIRLNPDNYATHFAESVKGRFTISRDDSKNSVYLQMNSLRAEDTGIYYCTEHGTRGFAYWGQGTLVTVSE
VL: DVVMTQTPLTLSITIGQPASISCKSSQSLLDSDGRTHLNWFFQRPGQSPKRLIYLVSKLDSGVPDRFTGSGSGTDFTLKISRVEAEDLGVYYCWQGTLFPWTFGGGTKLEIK
notes: mouse hybridoma antibody
B8: hu23.H5L5 (antibody, V domains shown)
VH: QVQLVQSGAEVKKPGASVKVSCKASGYNLKDTFLHWVRQAPGQGLEWMGRIDPANGNIKYDPKFQGRVTITADTSANTAYMELISLRSEDTAVYYCANSPYYYGSGYRIFDVWGQGTTVTVSS
VL: QIVLTQSPATLSLSPGERATLSCSAFSSVNYMHWYQQKPGQAPRLLIYTTSNLASGIPTRFSGSGSGTSYTLTISSLEPEDFAVYYCQQRSTYPFTFGQGTKLEIK
B9: T895 (antibody, V domains shown)
VH: EVQLQQSGPELVKPGASVKMSCKASGYTFTDYNMHWVKQSHGRTLEWIGYIVPLNGGSTFNQKFKGRATLTVNTSSRTAYMELRSLTSEDSAAYYCARGGTRFAYWGQGTLVTVSA
VL: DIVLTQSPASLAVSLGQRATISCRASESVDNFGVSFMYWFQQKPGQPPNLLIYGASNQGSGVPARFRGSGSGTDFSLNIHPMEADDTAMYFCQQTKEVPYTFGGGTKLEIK
B10: hu23.201 (antibody, V domains shown)
VH: B8 VH with N28T, G44R, I70L, A76S, I84S, T118L
VL: B8 VL with Q1E, A42S, T59A, S69D
B11: hu23.H7L6 (antibody, V domains shown)
VH: B8 VH with Q1E, V20L, R38K, M48I, R67K, V68A, I70L, M81L
VL: B8 VL with L13A, R44K, I57V, L77M
B12: hu23.H5L6 (antibody, V domains shown)
VH: B8 VH
VL: B8 VL with L13A, R44K, I57V, L77M
B13: hu23.H2L2 (antibody, V domains shown)
VH: B8 VH with N77S, I84S
VL: B8 VL with Q1E, T59A, S69D
B14: hu23.H1L2 (antibody, V domains shown)
VH: B8 VH with G44R, A72R, N77S, I84S, N98R
VL: B8 VL with Q1E, T59A, S69D
B15: hu23.H1L4 (antibody, V domains shown)
VH: B8 VH with G44R, A72R, N77S, I84S, N98R
VL: B8 VL with Q1E, L13A, A19V, L21I, T59A, S69D, L77M
B16: hu23.H4L4 (antibody, V domains shown)
VH: B8 VH with V20L, R38K, M48I, V68A, I70L, N77S, M81L, I84S
VL: B8 VL with Q1E, L13A, A19V, L21I, T59A, S69D, L77M
B17: hu23.211 (antibody, V domains shown)
VH: B8 VH with Q1E, N28T, G44R, A76S, I84S, T118L
VL: B8 VL with Q1E, T59A, S69D
B18: hu23.H7L5 (antibody, V domains shown)
VH: B8 VH with Q1E, V20L, R38K, M48I, R67K, V68A, I70L, M81L
VL: B8 VL
B19: hu23.203 (antibody, V domains shown)
VH: B8 VH with N28T, G44R, I70L, A76S, I84S, T118L
VL: B8 VL with Q1E, S12T, T59A, S69D
B20: hu23.H7L1 (antibody, V domains shown)
VH: B8 VH with Q1E, V20L, R38K, M48I, R67K, V68A, I70L, M81L
VL: B8 VL with Q1E, T59A, S69D, Y70F
B21: c23 (antibody, V domains shown)
VH: B5 VH
VL: B5 VL

What follows are binders tested against T1, mouse CD39 (assay: FACS, CHOK1-mCD39 cells).
From the text: FACS were used to determine binding of the antibodies to cell lines expressing CD39 naturally (SK-MEL-28) or recombinantly (CHOK1-hCD39, CHOK1-cynoCD39, and CHOK1-mCD39), or with cells lacking CD39 expression (CHOK1-blank) as a negative control.
CHOK1-hCD39, CHOK1-cCD39, CHOK1-mCD39 and CHOK1-blank cells were maintained in culture medium according to ATCC procedure. Cells were collected and re-suspended in blocking buffer at a density of 3×10⁶ cells/ml. […] The plates were washed with FACS buffer, and cells were re-suspended in 100 μL/well of PBS. Cells were then analyzed with FACSVerse™ and mean fluorescence intensity were determined. Full binding curves were generated on the CD39 expressing cells by testing a range of antibody concentrations. Apparent affinity was determined for each antibody using Prism software.

Binder	binding result
B1	no binding (tested: 30 µg/ml)
B2	no binding (tested: 30 µg/ml)
B3	no binding (tested: 30 µg/ml)
B4	no binding (tested: 30 µg/ml)
B5	no binding (tested: 30 µg/ml)
B6	no binding (tested: 30 µg/ml)
B7	no binding (tested: 30 µg/ml)

What follows are binders tested against T2, human CD39 (assay: cell-based or functional assay).

Binder	ATPase activity inhibition (IC50), MOLP-8 cells [nM]	ATPase activity inhibition (IC50), SK-MEL-5 cells [nM]
B8	0.33	0.07
B9	0.51	0.09

Biological target: T2, human CD39
Assay: cell-based or functional assay
Remark: another data set of the same source

Binder	ATPase inhibition on SK-MEL-28 cells, IC50
B10	0.264 nM
B11	0.121 nM
B12	0.13 nM
B13	0.767 nM
B14	0.964 nM
B8	0.122 nM
B15	0.59 nM
B16	0.487 nM
B17	0.386 nM
B18	0.144 nM
B19	0.32 nM
B20	0.147 nM
B21	0.158 nM and 0.209 nM
